From patent US20160289305A1 (INTERNATIONAL AIDS VACCINE INITIATIVE, published 2016) come the findings set out here.

The assay deals with T1, YU2 gp120 (HIV-1, UniProt P35961 32-498).
T1 construct: domain: gp120
In words: ELISA. (In an ELISA, binding on a coated surface is turned into a signal by an enzyme label.)

B1: VRC-PG-05 (antibody, V domains shown)
VH: EVQLVESGGGLVQPGGSLRLSCAASGFPFNRDWMTWVRQAPGKGLEWVANINMDGDKKDYVDSVKGRFTISRDNAKTSLYLQMNSLRAGDTAVYYCARIRQVSKYLQWYPGVFEMWGQGTMVTVSS
VL: DIVMTQSPDSLAVSLGERATIHCKSSQSVLYRPNNRNYVAWYQQKPGQPPRLLIHWASFRESGVPDRFTGSGSGTDFTLTISSLQAEDVAVYYCQQYFFLYSFGGGTKLEIN
Take B1: the binding result is given as “binds”.
